{"source": "paper PMC9068813", "about": "“Enhancer RNAs stimulate Pol II pause release by harnessing multivalent interactions to NELF”", "conditions_in_all_cases": "protein: recombinant; tags: His-tag (Ni-NTA purified); copies: 1;1;1;1", "key": {"NELF complex WT [1]": {"biological_target": "T1, NELF complex WT (UniProt Q9H3P2;Q8WX92;Q8IXH7;P18615 1-528;1-628;1-590;1-380)", "T1 sequence (Q9H3P2 whole entry, chain 1 of 4)": "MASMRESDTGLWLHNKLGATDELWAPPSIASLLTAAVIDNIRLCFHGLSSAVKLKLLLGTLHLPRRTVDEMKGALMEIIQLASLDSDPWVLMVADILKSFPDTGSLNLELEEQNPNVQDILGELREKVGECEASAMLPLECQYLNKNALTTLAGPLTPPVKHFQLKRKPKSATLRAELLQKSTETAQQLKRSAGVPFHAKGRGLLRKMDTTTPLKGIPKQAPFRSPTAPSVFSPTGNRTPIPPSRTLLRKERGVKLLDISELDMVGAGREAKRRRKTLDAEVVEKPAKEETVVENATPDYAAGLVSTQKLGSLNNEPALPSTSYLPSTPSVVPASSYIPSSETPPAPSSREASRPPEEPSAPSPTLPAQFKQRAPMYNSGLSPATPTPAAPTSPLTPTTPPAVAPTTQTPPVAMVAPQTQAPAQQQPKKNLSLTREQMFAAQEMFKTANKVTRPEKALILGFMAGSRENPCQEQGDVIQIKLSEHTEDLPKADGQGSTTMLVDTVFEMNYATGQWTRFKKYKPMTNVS", "T1 sequence (Q8WX92 other isoform, or with tags, fused parts or gaps, chain 2 of 4)": "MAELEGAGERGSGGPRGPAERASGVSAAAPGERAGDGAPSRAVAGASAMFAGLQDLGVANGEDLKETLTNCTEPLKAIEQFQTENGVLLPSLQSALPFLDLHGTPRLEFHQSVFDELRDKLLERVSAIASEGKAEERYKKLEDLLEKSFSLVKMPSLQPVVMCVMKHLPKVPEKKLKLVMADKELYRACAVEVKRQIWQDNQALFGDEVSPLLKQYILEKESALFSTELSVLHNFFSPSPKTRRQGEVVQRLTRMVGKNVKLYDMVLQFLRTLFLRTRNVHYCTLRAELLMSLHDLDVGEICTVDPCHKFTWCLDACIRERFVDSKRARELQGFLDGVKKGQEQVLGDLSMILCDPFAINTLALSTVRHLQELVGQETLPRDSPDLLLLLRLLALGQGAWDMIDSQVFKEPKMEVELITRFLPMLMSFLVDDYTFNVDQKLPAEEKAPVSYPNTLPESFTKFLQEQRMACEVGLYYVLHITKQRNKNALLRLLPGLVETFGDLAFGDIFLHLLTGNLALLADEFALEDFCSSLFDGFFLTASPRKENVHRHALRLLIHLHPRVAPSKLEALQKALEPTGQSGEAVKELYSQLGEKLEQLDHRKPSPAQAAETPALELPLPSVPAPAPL", "T1 sequence (Q8IXH7 whole entry, chain 3 of 4)": "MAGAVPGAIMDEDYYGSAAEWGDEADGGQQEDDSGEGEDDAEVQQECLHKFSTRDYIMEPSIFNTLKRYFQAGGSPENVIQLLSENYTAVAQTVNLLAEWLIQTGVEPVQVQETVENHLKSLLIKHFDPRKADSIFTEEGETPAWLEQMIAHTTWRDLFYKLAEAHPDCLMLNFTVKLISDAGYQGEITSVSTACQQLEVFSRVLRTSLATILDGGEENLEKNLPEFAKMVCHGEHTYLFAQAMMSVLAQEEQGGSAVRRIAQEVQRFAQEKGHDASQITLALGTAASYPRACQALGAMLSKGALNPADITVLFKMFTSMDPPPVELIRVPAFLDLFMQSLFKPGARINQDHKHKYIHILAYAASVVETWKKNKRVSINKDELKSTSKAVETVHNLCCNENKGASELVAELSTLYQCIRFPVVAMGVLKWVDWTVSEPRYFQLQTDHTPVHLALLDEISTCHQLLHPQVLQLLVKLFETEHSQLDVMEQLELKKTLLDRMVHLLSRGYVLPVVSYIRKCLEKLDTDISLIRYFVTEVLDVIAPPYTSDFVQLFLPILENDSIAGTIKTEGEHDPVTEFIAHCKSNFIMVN", "T1 sequence (P18615 whole entry, chain 4 of 4)": "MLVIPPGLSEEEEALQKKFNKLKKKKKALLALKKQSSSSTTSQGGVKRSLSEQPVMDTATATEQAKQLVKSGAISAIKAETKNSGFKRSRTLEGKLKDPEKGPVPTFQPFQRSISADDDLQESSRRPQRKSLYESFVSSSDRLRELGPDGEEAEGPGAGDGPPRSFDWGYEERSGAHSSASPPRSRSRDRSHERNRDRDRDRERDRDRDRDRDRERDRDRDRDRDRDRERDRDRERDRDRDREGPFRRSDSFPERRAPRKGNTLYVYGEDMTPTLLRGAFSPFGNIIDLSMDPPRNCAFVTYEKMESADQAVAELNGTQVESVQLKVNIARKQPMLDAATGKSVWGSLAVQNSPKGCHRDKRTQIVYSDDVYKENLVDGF", "test": "EMSA (NELF release from PEC); up to 2.4 µM; 20 mM Na-HEPES pH 7.4, 100 mM NaCl, 25 mM KCl, 3 mM MgCl2, 2 mM DTT; assembly 30 °C, eRNA incubation 15-20 min at room temperature; 3.5% native PAGE 0.5x TBE at 4 °C; PEC about 0.1 µM NELF 0.15 µM"}, "NELF complex WT [2]": {"biological_target": "T1, NELF complex WT", "test": "EMSA (NELF release from PEC); DSIF also released at high RNA; 20 mM Na-HEPES pH 7.4, 100 mM NaCl, 25 mM KCl, 3 mM MgCl2, 2 mM DTT; assembly 30 °C, eRNA incubation 15-20 min at room temperature; 3.5% native PAGE 0.5x TBE at 4 °C; PEC about 0.1 µM NELF 0.15 µM"}, "NELF complex WT [3]": {"biological_target": "T1, NELF complex WT", "test": "EMSA (NELF release from PEC); 18-fold molar excess; 20 mM Na-HEPES pH 7.4, 100 mM NaCl, 25 mM KCl, 3 mM MgCl2, 2 mM DTT; assembly 30 °C, eRNA incubation 15-20 min at room temperature; 3.5% native PAGE 0.5x TBE at 4 °C; PEC about 0.1 µM NELF 0.15 µM"}, "NELF complex WT [4]": {"biological_target": "T1, NELF complex WT", "test": "EMSA (NELF release from PEC); 20 mM Na-HEPES pH 7.4, 100 mM NaCl, 25 mM KCl, 3 mM MgCl2, 2 mM DTT; assembly 30 °C, eRNA incubation 15-20 min at room temperature; 3.5% native PAGE 0.5x TBE at 4 °C; PEC about 0.1 µM NELF 0.15 µM"}, "NELF complex WT [5]": {"biological_target": "T1, NELF complex WT", "test": "EMSA (NELF release from PEC); apparent Kd; NELF in PEC on N1; 20 mM Na-HEPES pH 7.4, 100 mM NaCl, 25 mM KCl, 3 mM MgCl2, 2 mM DTT; assembly 30 °C, eRNA incubation 15-20 min at room temperature; 3.5% native PAGE 0.5x TBE at 4 °C; PEC about 0.1 µM NELF 0.15 µM"}, "NELF complex WT [6]": {"biological_target": "T1, NELF complex WT", "test": "EMSA (NELF release from PEC); release at about equimolar eRNA; 20 mM Na-HEPES pH 7.4, 100 mM NaCl, 25 mM KCl, 3 mM MgCl2, 2 mM DTT; assembly 30 °C, eRNA incubation 15-20 min at room temperature; 3.5% native PAGE 0.5x TBE at 4 °C; PEC about 0.1 µM NELF 0.15 µM"}, "NELF complex WT [7]": {"biological_target": "T1, NELF complex WT", "test": "size-exclusion chromatography; UV crosslinking-MS (365 nm); isolated NELF; 20 mM Na-HEPES pH 7.4, 100 mM NaCl, 25 mM KCl, 3 mM MgCl2, 2 mM DTT; assembly 30 °C, eRNA incubation 15-20 min at room temperature; 3.5% native PAGE 0.5x TBE at 4 °C; PEC about 0.1 µM NELF 0.15 µM"}, "NELF complex WT [8]": {"biological_target": "T1, NELF complex WT", "test": "EMSA (NELF release from PEC); no DSIF release at high RNA; 20 mM Na-HEPES pH 7.4, 100 mM NaCl, 25 mM KCl, 3 mM MgCl2, 2 mM DTT; assembly 30 °C, eRNA incubation 15-20 min at room temperature; 3.5% native PAGE 0.5x TBE at 4 °C; PEC about 0.1 µM NELF 0.15 µM"}}}
{"binder": "poly(A) (ssRNA) RNA: AAAAAAAAAAAAAAAAAAAAAAAAAAAAAAAAAAAAAAAAAAAAAAAAAAAAAAAAAAAAAAAAAAAAAAAAAAAAAAAA", "values": [{"measurement": "binding result", "setting": "NELF complex WT [1]", "result": "no binding"}]}
{"binder": "poly(GU)40, 80 nt (ssRNA) RNA: GUGUGUGUGUGUGUGUGUGUGUGUGUGUGUGUGUGUGUGUGUGUGUGUGUGUGUGUGUGUGUGUGUGUGUGUGUGUGUGU", "values": [{"measurement": "binding result", "setting": "NELF complex WT [2]", "result": "binds"}]}
{"binder": "poly(UA) (ssRNA) RNA: UAUAUAUAUAUAUAUAUAUAUAUAUAUAUAUAUAUAUAUAUAUAUAUAUAUAUAUAUAUAUAUAUAUAUAUAUAUAUAUAUAUAUAUAUAUAUAUA", "values": [{"measurement": "binding result", "setting": "NELF complex WT [1]", "result": "no binding"}]}
{"binder": "poly(GA)48, 96 nt (ssRNA) RNA: GAGAGAGAGAGAGAGAGAGAGAGAGAGAGAGAGAGAGAGAGAGAGAGAGAGAGAGAGAGAGAGAGAGAGAGAGAGAGAGAGAGAGAGAGAGAGAGA", "values": [{"measurement": "binding result", "setting": "NELF complex WT [2]", "result": "binds"}]}
{"binder": "AGUAGGGGCAUGGCUCGCCCGAGGCUCGGUGCUGCCCCGCCGCCCGCCGC (structured_RNA)", "note": "[Nr4a1-(b) eRNA 1-50]", "values": [{"measurement": "binding result", "setting": "NELF complex WT [3]", "result": "no binding"}]}
{"binder": "poly(G2A), 96 nt (ssRNA) RNA: GGAGGAGGAGGAGGAGGAGGAGGAGGAGGAGGAGGAGGAGGAGGAGGAGGAGGAGGAGGAGGAGGAGGAGGAGGAGGAGGAGGAGGAGGAGGAGGA", "values": [{"measurement": "binding result", "setting": "NELF complex WT [4]", "result": "binds"}]}
{"binder": "Nr4a1-(b) eRNA 1-100 (structured_RNA) RNA: AGUAGGGGCAUGGCUCGCCCGAGGCUCGGUGCUGCCCCGCCGCCCGCCGCGUUCCUUCCGGCUUGGUGUUCCGGUGGCGGGACCAGGGAAGGGAAGCUCG", "values": [{"measurement": "Kd", "setting": "NELF complex WT [5]", "result": 2.02, "unit": "µM"}]}
{"binder": "Nr4a1-(b) eRNA 1-200 (structured_RNA) RNA: AGUAGGGGCAUGGCUCGCCCGAGGCUCGGUGCUGCCCCGCCGCCCGCCGCGUUCCUUCCGGCUUGGUGUUCCGGUGGCGGGACCAGGGAAGGGAAGCUCGGGCCAAAUCCGGUCUCGGGCGAGGUGACAGAAAUUUGGAAUCUGACACCGGAGGAUGGCUGAGCUCCGGCUCCUCUGGGAGUGCAAUUACGGACUUCGCA", "values": [{"measurement": "binding result", "setting": "NELF complex WT [6]", "result": "binds"}]}
{"binder": "GCGGUGAGAGUGAUUUUGUAACUCUAAAGUUACAGAGGGUUUUGUUGUGU (ssRNA)", "note": "[Nr4a1-(a) eRNA 1-50]", "values": [{"measurement": "Kd", "setting": "NELF complex WT [5]", "result": 9.7, "unit": "µM"}]}
{"binder": "Arc eRNA 1-200 (structured_RNA) RNA: AAAACACAGCCGCCAGGGUGGGGGUGGCAGCCUUGAACGCCACCCUCUAACUGGCAUGGGCAUCUGAACUCUCAGCUCUGGGGGUGUCUCAUCGGCCAGCUGGCAGUAGCCCCCCCAACCCCACCCCUGAUGGAGAACUGCUCCUGUAUGAUCCAGCCCAGUGGGCGCACAGGGAGUUGGUAGGUGGGCACUCAGACUGG", "values": [{"measurement": "binding result", "setting": "NELF complex WT [6]", "result": "binds"}]}
{"binder": "Arc eRNA 1-200, 4SU (structured_RNA, 4-thiouridine, 40-80% of U) RNA: AAAACACAGCCGCCAGGGUGGGGGUGGCAGCCUUGAACGCCACCCUCUAACUGGCAUGGGCAUCUGAACUCUCAGCUCUGGGGGUGUCUCAUCGGCCAGCUGGCAGUAGCCCCCCCAACCCCACCCCUGAUGGAGAACUGCUCCUGUAUGAUCCAGCCCAGUGGGCGCACAGGGAGUUGGUAGGUGGGCACUCAGACUGG", "values": [{"measurement": "binding result", "setting": "NELF complex WT [7]", "result": "binds"}]}
{"binder": "AAAACACAGCCGCCAGGGUGGGGGUGGCAGCCUUGAACGCCACCCUCUAA (structured_RNA)", "note": "[Arc eRNA 1-50]", "values": [{"measurement": "binding result", "setting": "NELF complex WT [3]", "result": "no binding"}]}
{"binder": "poly(CA) (ssRNA) RNA: CACACACACACACACACACACACACACACACACACACACACACACACACACACACACACACACACACACACACACACACACACACACACACACACA", "values": [{"measurement": "binding result", "setting": "NELF complex WT [1]", "result": "no binding"}]}
{"binder": "Nr4a1-(a) eRNA 1-100 (structured_RNA) RNA: GCGGUGAGAGUGAUUUUGUAACUCUAAAGUUACAGAGGGUUUUGUUGUGUUUUUAAUCAAGAGCCCUGGUUUUGAUUUGUGGGUAAUCUUUCUUUAAACC", "values": [{"measurement": "Kd", "setting": "NELF complex WT [5]", "result": 0.14, "unit": "µM"}]}
{"binder": "Nr4a1-(a) eRNA 1-100, 4SU (structured_RNA, 4-thiouridine, 40-80% of U) RNA: GCGGUGAGAGUGAUUUUGUAACUCUAAAGUUACAGAGGGUUUUGUUGUGUUUUUAAUCAAGAGCCCUGGUUUUGAUUUGUGGGUAAUCUUUCUUUAAACC", "values": [{"measurement": "binding result", "setting": "NELF complex WT [7]", "result": "binds"}]}
{"binder": "poly(G2A6), 96 nt (ssRNA) RNA: GGAAAAAAGGAAAAAAGGAAAAAAGGAAAAAAGGAAAAAAGGAAAAAAGGAAAAAAGGAAAAAAGGAAAAAAGGAAAAAAGGAAAAAAGGAAAAAA", "values": [{"measurement": "binding result", "setting": "NELF complex WT [8]", "result": "binds"}]}
{"binder": "Nr4a1-(a) eRNA 1-200 (structured_RNA) RNA: GCGGUGAGAGUGAUUUUGUAACUCUAAAGUUACAGAGGGUUUUGUUGUGUUUUUAAUCAAGAGCCCUGGUUUUGAUUUGUGGGUAAUCUUUCUUUAAACCUCGCCCAUUUCCGGCCUGGUGACCUGGGCCACUUUCUCAUGUUGACCCAGAUGAUCCUCAGUAGCAAGAACAAAAGGACAACAGAUGUGGAAACACUCAA", "values": [{"measurement": "binding result", "setting": "NELF complex WT [6]", "result": "binds"}]}
{"binder": "Nr4a1-(a) eRNA 1-200, 4SU (structured_RNA, 4-thiouridine, <60% of U) RNA: GCGGUGAGAGUGAUUUUGUAACUCUAAAGUUACAGAGGGUUUUGUUGUGUUUUUAAUCAAGAGCCCUGGUUUUGAUUUGUGGGUAAUCUUUCUUUAAACCUCGCCCAUUUCCGGCCUGGUGACCUGGGCCACUUUCUCAUGUUGACCCAGAUGAUCCUCAGUAGCAAGAACAAAAGGACAACAGAUGUGGAAACACUCAA", "values": [{"measurement": "binding result", "setting": "NELF complex WT [7]", "result": "binds"}]}
{"binder": "Arc eRNA 96-200 (structured_RNA) RNA: CCAGCUGGCAGUAGCCCCCCCAACCCCACCCCUGAUGGAGAACUGCUCCUGUAUGAUCCAGCCCAGUGGGCGCACAGGGAGUUGGUAGGUGGGCACUCAGACUGG", "values": [{"measurement": "binding result", "setting": "NELF complex WT [4]", "result": "binds"}]}
{"binder": "poly(CU) (ssRNA) RNA: CUCUCUCUCUCUCUCUCUCUCUCUCUCUCUCUCUCUCUCUCUCUCUCUCUCUCUCUCUCUCUCUCUCUCUCUCUCUCUCU", "values": [{"measurement": "binding result", "setting": "NELF complex WT [1]", "result": "no binding"}]}
{"binder": "poly(U) (ssRNA) RNA: UUUUUUUUUUUUUUUUUUUUUUUUUUUUUUUUUUUUUUUUUUUUUUUUUUUUUUUUUUUUUUUUUUUUUUUUUUUUUUUU", "values": [{"measurement": "binding result", "setting": "NELF complex WT [1]", "result": "no binding"}]}
